Reference: the DeepSol protein solubility set

assay: soluble on expression in E. coli; label from the status in PepcDB or PDB records

Sequence	soluble on expression in E. coli
AYQLYRNTTLGNSLQESLDELIQSQQITPQLALQVLLQFDKAINAALAQRVRNRVNFRGSLNTYRFCDNVWTFVLNDVEFREVTELIKVDKVKIVACDGKNTGSNTTE	soluble
GMSVPQRPHQFVLTLSCPSAAGQVAAVVGLLDRHRCYVDELTVFDDDLSARFFVRCVFHATDDADALRVDALRREFEPIAERFRMQWAIHDVAARPKVLIMVSKLEHCLADLLFRWKMGELKMDIVGIVSNHPDFAPLAAQHGLPFRHFPITADTKAQQEAQWLDVFETSGAELVILARYMQVLSPEASARLANRAINIHHSFLPGFKGAKPYHQAHARGVKLIGATAHFVTDDLDEGPIIEQVVERVDHSYRPEQLLAVGRDVECITLARAVKAFIERRVFLNGDRTVVFQ	soluble
MSLKYLLLGMMLLGSFAASAGMDPQQLKQTIEQRLGVQVYLVDETPMPGLYMLGTAQGLLYTDARGDYVLQGTMLDLAHDMKNLTMLGLRQQRQLALAQIGERRVQLRAEQERHRVTLFTDLACSSCRTTLAELPVLQARGVSVQLLPVLGTFADLAEAQARWCDPRQFDALDLSDRLPETGCNEILAHHIGLSQWLGIKALPSWVLPNGDLVRGYQSPEQLLKILDHINAPANPSSEGHHHHHH	soluble
MMKTLSPLKASLFAILASSTVLVTTVSAEPSQECDHPRSEFHKRGDRMGHDGMHKMFEGLELTDTQKADIKKLFAEQRAARSDDKPTKEERLARRAEMHALITAATFDETQAKALIGAQQEKRQAQAIERMKMQNQIYNLLTPEQQAKFKARFEAHTGKEPRSLEHHHHHH	not soluble
MSLSDNIYSVSQLNSAARQMLEGNFCQIWLTGEISNFTQPVSGHWYLTLKDENAQVRCAMFRMKNLRVAFRPQNGMQVLVRANVSLYEPRGDYQLIIDSMHPAGEGLLQQQFEALKMKLAAEGLFAQNLKKTLPHFSKAVGIITSSTGAALQDILHILARRDPSLKVVIYPTAVQGKEATAEIVQMIELANARQEVDVLIVGRGGGSLEDLWCFNEEEVARAIFRSTLPIISAVGHETDVTIADFVADLRAPTPSAAAELVSRNQDELLQQLRHQQQRLDMAFDRLFTRKSQRLKQLALRLQNQHPQNQLRAQQAKNEQLTHRLQLAILRQFENTQQKFTALSVRLKQNPLPYRIQRYQQGLEQLKVRLNFCVNRQVTERQNKLATLCGKLDGLSPLKVLARGYSIAENPQGKAIVSVKDVNQGDFITTQVADGKIVSKVLEGHHHHHH	not soluble
METVQDCENKLPPSLKSRLCEIRRYEIIEGPEMDKHIHCVMRALDFVYEDGRGDYHKLYDPLNIIELDKRHDVNLEKCIGECVQVPTSERAHVFYKCLLKSTTGRTFKKVFDLMELKKAGKVPQHQRYTAEFVQIMKDYDKALNC	soluble
MGHHHHHHSHMPVTEKDLAEDAPWKKIQQNTFTRWCNEHLKCVNKRIGNLQTDLSDGLRLIALLEVLSQKRMYRKYHQRPTFRQMQLENVSVALEFLDRESIKLVSIDSKAIVDGNLKLILGLVWTLILHYSISMPVWEDEGDDDAKKQTPKQRLLGWIQNKIPYLPITNFNQNWQDGKALGALVDSCAPGLCPDWESWDPQKPVDNAREAMQQADDWLGVPQVITPEEIIHPDVDEHSVMTYLSQFPKAKLKPGAPLKPKL	soluble
MKAIIVKPPNAGVQVKDVDEKKLDSYGKIKIRTIYNGICGADREIVNGKLTLSTLPKGKDFLVLGHEAIGVVEESYHGFSQGDLVMPVNRRGCGICRNCLVGRPDFCETGEFGEAGIHKMDGFMREWWYDDPKYLVKIPKSIEDIGILAQPLADIEKSIEEILEVQKRVPVWTCDDGTLNCRKVLVVGTGPIGVLFTLLFRTYGLEVWMANRREPTEVEQTVIEETKTNYYNSSNGYDKLKDSVGKFDVIIDATGADVNILGNVIPLLGRNGVLGLFGFSTSGSVPLDYKTLQEIVHTNKTIIGLVNGQKPHFQQAVVHLASWKTLYPKAAKMLITKTVSINDEKELLKVLREKEHGEIKIRILWE	soluble
MTQAILALSQIEKAFPGVKALDKASLNVYPGRVMALMGENGAGKSTLMKVLTGIYSKDAGSIEYQGQPVSFKGPRDSQLAGISIIHQELNLIPQLTIAENIFLGREMTSPFGRILWDEMHRKADQLLARLNVKHSAKTLLGELSLGEQQMVEIAKALSFESKVIIMDEPTDALTDTETESLFNVINELREQGCGIVYISHRLKEIFEICDDITVLRDGKFIGECRVCDTNEDGLIEMMVGRKLEEQYPRIAAQQGDISLEVIGLTGSGVHDVSFTLKKGEILGVSGLMGAGRTELMKVIYGALPSERGVINLNGRTVNPVSPQDGLANGIAYISEDRKGDGLVLGLSVKENMSLCALDQLSKGVQIRHADEVIAVDDFIRLFNIKTPSREQIIGNLSGGNQQKVAIAKGLMTKPKVLILDEPTRGVDVGAKKEIYQLINQFKAEGMSIILVSSEMPEVLGMSDRILVMHEGRISGEFMASEADQEKLMACAVGRNPAHAA	not soluble
MKPLSGLKVLDLSRVLAGPLCTMILADLGAEVVKVEPPWGDETRGWGPPFVEGESAYFLAVNRGKRSVALDLKRPEGQEAVRRLAQKADVLVENFKTGDLRRFGLDYESLKPLNPRLIYLSITGFGHTGPRAKEPGYDAALQGYTGIMSVTGEPEGPPMKVGVAWIDVMTGMMGALAVLAALWERERSGLGQHIDLSLFDVGLFALANLGESFLLTGKPPKRLGNAHAQIVPYGAFPAEDGWLVLAVGNDEQFARLCQVVGLPDLARRFPTNALRVEHREEVVEALSRALKARSRAHWLERFKEAGVPAAPVNDLKEAFQDPQARARGAVWTLPHPLLGALPTLANPLRFLSRTPAGPGLPPPLLGEHTREVLLEAGYTPEAVADLVQRGIAKEAPPASQRRPDRGA	soluble
MGSDKIHHHHHHMEMFAQFSVEGQRMYGMLHTPDGSATGQQAPPQGWPSVVIVHGFTGDKVSSHRLLVLLARRLTAAGIAALRFDCRGSGESQGDFSEMTVGREVQDVEAAFDYVRHQPGLDPERVMLLGYSMGGLVSALAAEKVRPHRFALWSPALPELWLRHLRGGLLPPVISDYGGWPLGRAFLQEVVQTRPLEAAARWGGVAHVFHGDRDQTCPVEWGVRTPKPCAATPPRFPARGTRMTRSNR	not soluble
GSLYKMSSINADFAFNLYRRFTVETPDKNIFFSPVSISAALVMLSFGACCSTQTEIVETLGFNLTDTPMVEIQHGFQHLICSLNFPKKELELQIGNALFIGKHLKPLAKFLNDVKTLYETEVFSTDFSNISAAKQEINSHVEMQTKGKVVGLIQDLKPNTIMVLVNYIHFKAQWANPFDPSKTEDSSSFLIDKTTTVQVPMMHQMEQYYHLVDMELNCTVLQMDYSKNALALFVLPKEGQMESVEAAMSSKTLKKWNRLLQKGWVDLFVPKFSISATYDLGATLLKMGIQHAYSENADFSGLTEDNGLKLSNAAHKAVLHIGEKGTEAAAVPEVELSDQPENTFLHPIIQIDRSFMLLILERSTRSILFLGKVVNPTEA	soluble
SLKQQLIKNGLVLDMKGNHKPQAKDILIEGKWIRDIRPNIEPEVDTEIIDAEGKIVMPGFVDTHRHVWESLLRHIGTDWTLLTYLDNLYYGNLGSMLTPEDSYIANLWGALEAIDAGVTTVLDWSMLETPEHADASIKGLQAAGIRAVFAHGTPGYETYWSRDSEVRHPKDAKRVKKEYFQSDDQLLTMALAIRGPEFSSWEVTLDDIQLARELDAIASMHIGFGTWGPHDRSITRMREAGLLDSDLNLVHVNRIQPHEYEYIAESGASLSVTPEVEMMMGHGYPATGYLHKHRGLVTLGVDVVVATAGDMFAQMKFALQAERAWQNEQRLDRGEMPEQLKMTTNDVLTFATLNGAKALKLDDKIGTLDVGKEADLLLINPSSFNLFPLNHEPVGAVVQSARPENVDSVFIAGRPVKRHGKLLFDDLDGLRNKVLAASEAVFHRQAAKN	not soluble
MFQQQNDWETRENAFAAFAMGPLTDFWRQREEAEFIGVGNIPVRFVRFRNDSNDRTIVICPGRIESYVKYAELAYDLFHLGFDIFIIDHRGQGRSGRMLSDPHRGHVDHFNDYVEDLAAFWQQEIEPGPWRKRYILAHSMGGAIATLFLQRHRVRCDAIALTAPMFGIVIRLPSFMVRHILDWAEGHQRIREDYAIGTGQWRALPFGMNALTHSRQRYQRNLRFYADEPQLRVGGPTWHWVREGILAGEQVLAGASDDTTPTLLIQAEEERVVDNRTHDRFCEIRAAAGYPCEGGKPLVIKGAYHEILFEKDAMRSVALNAIVEFFNKPNLSSGNRFA	not soluble
